# According to PMC11633740, “Rapid prediction of acute thrombosis via nanoengineered immunosensors with unsupervised clustering for multiple circulating biomarkers”:
# T1: C-reactive protein (CRP) (human, UniProt P02741 19-224)
# T1 sequence: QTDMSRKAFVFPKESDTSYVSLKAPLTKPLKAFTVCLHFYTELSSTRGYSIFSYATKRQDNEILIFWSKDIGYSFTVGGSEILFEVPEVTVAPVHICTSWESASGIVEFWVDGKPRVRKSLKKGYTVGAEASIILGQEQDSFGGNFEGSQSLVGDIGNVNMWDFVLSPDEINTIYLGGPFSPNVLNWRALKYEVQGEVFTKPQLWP
# B1: sP-selectin aptamer (ssRNA)
# RNA: ACGCUCAACGAGCCAGGAACAUCGACGUCAGCAAACGCGAGCGCAACCAGUAACACC
# modifications: thiol (position not given) for the electrode; no 2' modification stated
# B2: CRP aptamer (ssDNA)
# DNA: GCCTGTAAGGTGGTCGGTGTGGCGAGTGTGTTAGGAGAGATTGC
# modifications: thiol (position not given) for the electrode
# What was measured:
# [1] = target: soluble P-selectin (sP-selectin) (human, UniProt P16109 42-771); experiment: electrochemical impedance spectroscopy; aptamer on Au NP/CNT electrode; linear 0.1-10^4 ng/ml, LOD 0.019 ng/ml; SPR (Biacore 2000, SA chip): 10 mM Hepes, 150 mM NaCl, pH 7.4, 0.005% Tween 20, 25 C; EIS: 45 min incubation (plasma workflow), PBS pH 7.4 washes, 5 mM ferri/ferrocyanide probe; details: protein: commercial
# C-reactive protein (CRP) = target: T1, C-reactive protein (CRP); experiment: electrochemical impedance spectroscopy; aptamer on Au NP/CNT electrode; linear 0.1-10^4 ug/ml, LOD 0.023 ug/ml; SPR (Biacore 2000, SA chip): 10 mM Hepes, 150 mM NaCl, pH 7.4, 0.005% Tween 20, 25 C; EIS: 45 min incubation (plasma workflow), PBS pH 7.4 washes, 5 mM ferri/ferrocyanide probe; details: protein: commercial; chain copies: 5
# soluble P-selectin (sP-selectin), sequence (P16109 42-771): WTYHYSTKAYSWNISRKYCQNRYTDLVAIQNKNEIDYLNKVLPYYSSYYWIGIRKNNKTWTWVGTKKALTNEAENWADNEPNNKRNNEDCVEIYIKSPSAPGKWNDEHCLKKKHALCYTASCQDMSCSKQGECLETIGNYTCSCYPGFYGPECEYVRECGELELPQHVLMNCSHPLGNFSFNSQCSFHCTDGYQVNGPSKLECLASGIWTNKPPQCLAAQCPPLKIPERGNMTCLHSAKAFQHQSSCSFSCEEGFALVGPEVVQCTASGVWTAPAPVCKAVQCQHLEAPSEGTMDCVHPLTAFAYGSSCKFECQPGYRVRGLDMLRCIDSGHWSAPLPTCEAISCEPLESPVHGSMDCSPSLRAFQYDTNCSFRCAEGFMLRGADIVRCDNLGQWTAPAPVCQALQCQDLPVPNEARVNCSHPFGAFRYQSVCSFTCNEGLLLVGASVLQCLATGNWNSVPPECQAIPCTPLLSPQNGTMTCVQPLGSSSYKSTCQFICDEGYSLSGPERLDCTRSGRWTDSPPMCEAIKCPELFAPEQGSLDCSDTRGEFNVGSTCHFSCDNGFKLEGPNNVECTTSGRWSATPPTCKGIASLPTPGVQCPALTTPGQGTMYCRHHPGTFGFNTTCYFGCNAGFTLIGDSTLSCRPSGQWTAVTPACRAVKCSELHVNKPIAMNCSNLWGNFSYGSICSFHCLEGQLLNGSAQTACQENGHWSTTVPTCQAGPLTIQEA
Binder,binding result [1],binding result (C-reactive protein (CRP))
B1,binds,–
B2,–,binds
